{
  "source": "patent US11820970B2",
  "about": "“High throughput protein-protein interaction screening in yeast liquid culture” (University of Washington, priority 2016, dated 2023)",
  "origin": "cited, not measured here",
  "key": {"[1]": {"molecular_target": "T1, BclB (Homo sapiens, UniProt Q9HD36)", "T1 sequence (Q9HD36 1-204)": "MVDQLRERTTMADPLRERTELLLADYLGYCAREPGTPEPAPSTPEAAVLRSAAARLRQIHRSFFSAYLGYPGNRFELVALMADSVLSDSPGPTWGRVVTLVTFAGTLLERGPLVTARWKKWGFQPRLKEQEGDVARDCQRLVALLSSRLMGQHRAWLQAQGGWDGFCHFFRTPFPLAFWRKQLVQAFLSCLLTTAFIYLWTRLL", "conditions": "binder vs BclB; known affinities; read-out: AFFINITY"}, "[2]": {"molecular_target": "Mcl1 (Homo sapiens, UniProt Q07820)", "sequence (Q07820 whole entry, species assumed)": "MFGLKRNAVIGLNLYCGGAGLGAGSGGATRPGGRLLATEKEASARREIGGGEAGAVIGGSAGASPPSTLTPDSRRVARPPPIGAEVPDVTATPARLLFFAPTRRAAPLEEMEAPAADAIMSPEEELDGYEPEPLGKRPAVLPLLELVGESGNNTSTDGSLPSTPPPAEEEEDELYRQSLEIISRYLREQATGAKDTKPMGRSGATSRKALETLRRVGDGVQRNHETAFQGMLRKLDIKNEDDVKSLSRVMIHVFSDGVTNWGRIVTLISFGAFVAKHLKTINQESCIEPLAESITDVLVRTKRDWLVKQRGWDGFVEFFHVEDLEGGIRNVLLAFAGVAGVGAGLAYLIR", "conditions": "binder vs Mcl1; known affinities; read-out: AFFINITY"}, "[3]": {"molecular_target": "Bcl2 (Homo sapiens, UniProt P10415)", "sequence (P10415 whole entry, species assumed)": "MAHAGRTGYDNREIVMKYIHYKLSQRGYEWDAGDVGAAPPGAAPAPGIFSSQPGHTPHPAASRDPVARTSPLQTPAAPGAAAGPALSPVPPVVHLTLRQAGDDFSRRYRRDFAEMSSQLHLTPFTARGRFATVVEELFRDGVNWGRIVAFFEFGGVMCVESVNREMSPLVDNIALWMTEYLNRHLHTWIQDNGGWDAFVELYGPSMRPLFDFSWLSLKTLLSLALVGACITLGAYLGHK", "conditions": "binder vs Bcl2; known affinities; read-out: AFFINITY"}, "[4]": {"molecular_target": "T2, Bfl1 (Homo sapiens, UniProt Q16548)", "T2 sequence (Q16548 1-175)": "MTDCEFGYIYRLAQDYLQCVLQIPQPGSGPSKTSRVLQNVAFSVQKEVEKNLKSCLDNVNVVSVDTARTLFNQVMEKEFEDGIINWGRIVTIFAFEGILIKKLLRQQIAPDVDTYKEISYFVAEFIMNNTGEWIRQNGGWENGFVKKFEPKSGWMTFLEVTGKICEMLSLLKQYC", "conditions": "binder vs Bfl1; known affinities; read-out: AFFINITY"}, "[5]": {"molecular_target": "T3, BclW (Homo sapiens, UniProt Q92843)", "T3 sequence (Q92843 1-193)": "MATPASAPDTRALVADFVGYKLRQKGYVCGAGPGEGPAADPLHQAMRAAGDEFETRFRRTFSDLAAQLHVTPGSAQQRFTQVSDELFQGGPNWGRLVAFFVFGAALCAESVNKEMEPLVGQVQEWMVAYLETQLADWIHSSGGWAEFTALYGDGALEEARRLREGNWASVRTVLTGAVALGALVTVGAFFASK", "conditions": "binder vs BclW; known affinities; read-out: AFFINITY"}, "[6]": {"molecular_target": "BclXL (Homo sapiens, UniProt Q07817)", "sequence (Q07817 whole entry, species assumed)": "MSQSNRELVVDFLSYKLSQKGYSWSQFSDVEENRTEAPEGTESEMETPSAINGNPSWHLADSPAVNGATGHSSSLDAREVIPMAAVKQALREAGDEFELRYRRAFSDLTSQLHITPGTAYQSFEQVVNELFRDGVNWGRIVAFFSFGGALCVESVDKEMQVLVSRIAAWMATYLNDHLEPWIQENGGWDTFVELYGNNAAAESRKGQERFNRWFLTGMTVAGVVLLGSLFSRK", "conditions": "binder vs BclXL; known affinities; read-out: AFFINITY"}},
  "data": [
    {"molecule": "B-CDP01: de novo (engineered) binding protein for Bcl2 family homologues, displayed as SAP (protein) ADPKKVLDKAKDQAENRVRELKQELERLYKEARKLDLTQEMRRKLEWRYIAAMLKAIGDILNAIAQAENEADKLKKAGLVNSQQLDELRRRLEELAKEAARKAHDYGREFQLKLEY", "values": [
      {"measurement": "Kd", "setting": "[1]", "result": 0.00833, "unit": "µM"},
      {"measurement": "Kd", "setting": "[2]", "result": 0.00046, "unit": "µM"},
      {"measurement": "Kd", "setting": "[3]", "result": 0.0173, "unit": "µM"},
      {"measurement": "Kd", "setting": "[4]", "result": 0.518, "unit": "µM"},
      {"measurement": "Kd", "setting": "[5]", "result": 2.01, "unit": "µM"},
      {"measurement": "Kd", "setting": "[6]", "result": 0.0202, "unit": "µM"}
    ]},
    {"molecule": "X-CDP07: de novo (engineered) binding protein for Bcl2 family homologues, displayed as SAP (protein) ADPKKVLDKAKDRAENVVRKLKKELEELYKEARKLDLTQEMRDRIRLAAIAARIAAFGDIFHAIMEALEEARKLKKAGLVNSQQLDELKRRLEELDEEAAQRAEKLGKEFELKLEY", "values": [
      {"measurement": "Kd", "setting": "[1]", "result": 0.107, "unit": "µM"},
      {"measurement": "Kd", "setting": "[2]", "result": 0.0174, "unit": "µM"},
      {"measurement": "Kd", "setting": "[3]", "result": 0.00381, "unit": "µM"},
      {"measurement": "Kd", "setting": "[4]", "result": 7.05, "unit": "µM"},
      {"measurement": "Kd", "setting": "[5]", "result": 0.0149, "unit": "µM"},
      {"measurement": "Kd", "setting": "[6]", "result": 0.00059, "unit": "µM"}
    ]}
  ]
}
